This data set deals with the molecule itself. In words: single-molecule photobleaching step counting (TIRF microscopy); MEC-4::EGFP on the Xenopus oocyte surface in the presence of MEC-19, 1-2 d after cRNA injection; observed bleaching steps compared with the binomial distribution predicted for trimers.

B1: C-terminally EGFP-tagged MEC-4 (natural protein, C. elegans, UniProt P24612 1-768, looked up)
chain: MSWMQNLKNYQHLRDPSEYMSQVYGDPLAYLQETTKFVTEREYYEDFGYGECFNSTESEVQCELITGEFDPKLLPYDKRLAWHFKEFCYKTSAHGIPMIGEAPNVYYRAVWVVLFLGCMIMLYLNAQSVLDKYNRNEKIVDIQLKFDTAPFPAITLCNLNPYKASLATSVDLVKRTLSAFDGAMGKAGGNKDHEEEREVVTEPPTTPAPTTKPARRRGKRDLSGAFFEPGFARCLCGSQGSSEQEDKDEEKEEELLETTTKKVFNINDADEEWDGMEEYDNEHYENYDVEATTGMNMMEECQSERTKFDEPTGFDDRCICAFDRSTHDAWPCFLNGTWETTECDTCNEHAFCTKDNKTAKGHRSPCICAPSRFCVAYNGKTPPIEIWTYLQGGTPTEDPNFLEAMGFQGMTDEVAIVTKAKENIMFAMATLSMQDRERLSTTKRELVHKCSFNGKACDIEADFLTHIDPAFGSCFTFNHNRTVNLTSIRAGPMYGLRMLVYVNASDYMPTTEATGVRLTIHDKEDFPFPDTFGYSAPTGYVSSFGLRLRKMSRLPAPYGDCVPDGKTSDYIYSNYEYSVEGCYRSCFQQLVLKECRCGDPRFPVPENARHCDAADPIARKCLDARMNDLGGLHGSFRCRCQQPCRQSIYSVTYSPAKWPSLSLQIQLGSCNGTAVECNKHYKENGAMVEVFYEQLNFEMLTESEAYGFVNLLADFGGQLGLWCGISFLTCCEFVFLFLETAYMSAEHNYSLYKKKKAEKAKKIASGSF
notes: MEC-4, C. elegans DEG/ENaC protein, wild type; construct described in Chen et al. (2015); also called MEC-4::EGFP; source: Xenopus laevis oocytes, cRNA injected, on the oocyte surface; not shown: EGFP, C-terminal, kept
Consider B1, for which the “stoichiometry N” value was 3.

Usually stoichiometry N stands for the number of molecules, sites or subunits per partner or assembly.

The record behind these values is publication PMC4825646, “MEC-10 and MEC-19 Reduce the Neurotoxicity of the MEC-4(d) DEG/ENaC Channel in Caenorhabditis elegans” (G3: Genes|Genomes|Genetics, 2016).
